We go through ten molecules from doi:10.1101/2022.04.11.487922.

Like-named read-outs stand apart in the source and are kept apart here.

Series [1] deals with T1, p50 (in p50/RelA);RelA FL (in p50/RelAFL) (Mus musculus;Mus musculus, UniProt P25799;Q04207 39-350;19-549, |). Nature of the series: EMSA.
Series [2] has as its target T2, p50 (in p50/RelA);RelA RHD (in p50/RelARHD) (Mus musculus;Mus musculus, UniProt P25799;Q04207 39-350;19-321, |). The experiment in a line: EMSA.
Series [3] deals with T2, p50 (in p50/RelA);RelA RHD (in …). The experiment in a line: fluorescence anisotropy.
Series [4] deals with T1, p50 (in p50/RelA);RelA FL (in …). The experiment in a line: fluorescence anisotropy.
The target in series [5] is T2, p50 (in p50/RelA);RelA RHD (in …). Nature of the series: fluorescence anisotropy. This is another data set of the same source.
Series [6] has as its target T1, p50 (in p50/RelA);RelA FL (in …). Nature of the series: fluorescence anisotropy. The source holds these as a separate data set.
For series [7] the target is unchanged. The experiment in a line: EMSA. The source holds these as a separate data set.
Series [8] has as its target T2, p50 (in p50/RelA);RelA RHD (in …). Nature of the series: EMSA. The source holds these as a separate data set.
Series [9] shares this target. Nature of the series: EMSA. This is another data set of the same source.
The target of series [10] is T1, p50 (in p50/RelA);RelA FL (in …). The experiment in a line: EMSA. This is another data set of the same source.
In series [11] the target is T2, p50 (in p50/RelA);RelA RHD (in …). The experiment in a line: EMSA. This is another data set of the same source.
The target of series [12] is T1, p50 (in p50/RelA);RelA FL (in …). Nature of the series: EMSA. This is another data set of the same source.
In series [13] the target is T2, p50 (in p50/RelA);RelA RHD (in …). The experiment in a line: EMSA. The source holds these as a separate data set.
Series [14] has as its target T1, p50 (in p50/RelA);RelA FL (in …). The experiment in a line: EMSA. This is another data set of the same source.
The target of series [15] is T2, p50 (in p50/RelA);RelA RHD (in …). The experiment in a line: fluorescence anisotropy. This is another data set of the same source.
Series [16] has as its target T1, p50 (in p50/RelA);RelA FL (in …). Nature of the series: fluorescence anisotropy. The source holds these as a separate data set.
Series [17] has as its target T2, p50 (in p50/RelA);RelA RHD (in …). Nature of the series: fluorescence anisotropy. The source holds these as a separate data set.
Series [18] concerns the target T1, p50 (in p50/RelA);RelA FL (in …). The experiment in a line: fluorescence anisotropy. The source holds these as a separate data set.

T2 sequence (P25799 39-350, chain 1 of 2): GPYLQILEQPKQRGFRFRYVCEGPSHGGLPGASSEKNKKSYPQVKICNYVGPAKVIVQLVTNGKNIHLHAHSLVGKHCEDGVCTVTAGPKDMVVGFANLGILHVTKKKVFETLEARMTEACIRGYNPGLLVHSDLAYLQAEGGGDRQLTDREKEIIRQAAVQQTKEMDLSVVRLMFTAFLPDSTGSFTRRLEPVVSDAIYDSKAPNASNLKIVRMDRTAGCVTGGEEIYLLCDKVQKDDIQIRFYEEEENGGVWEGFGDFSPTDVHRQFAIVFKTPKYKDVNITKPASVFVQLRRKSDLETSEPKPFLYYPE
T2 sequence (Q04207 19-321, chain 2 of 2): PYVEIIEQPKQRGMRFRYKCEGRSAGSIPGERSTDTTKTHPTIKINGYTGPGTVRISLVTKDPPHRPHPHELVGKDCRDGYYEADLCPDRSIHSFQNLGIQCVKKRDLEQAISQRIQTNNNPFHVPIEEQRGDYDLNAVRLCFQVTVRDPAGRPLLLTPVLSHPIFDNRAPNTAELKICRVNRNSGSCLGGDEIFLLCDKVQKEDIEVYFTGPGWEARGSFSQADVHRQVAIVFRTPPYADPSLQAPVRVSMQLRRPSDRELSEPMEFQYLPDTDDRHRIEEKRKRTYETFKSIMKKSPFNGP
T1 sequence (P25799 39-350, chain 1 of 2): as the sequence (P25799 39-350, chain 1 of 2) above
T1 sequence (Q04207 19-549, chain 2 of 2): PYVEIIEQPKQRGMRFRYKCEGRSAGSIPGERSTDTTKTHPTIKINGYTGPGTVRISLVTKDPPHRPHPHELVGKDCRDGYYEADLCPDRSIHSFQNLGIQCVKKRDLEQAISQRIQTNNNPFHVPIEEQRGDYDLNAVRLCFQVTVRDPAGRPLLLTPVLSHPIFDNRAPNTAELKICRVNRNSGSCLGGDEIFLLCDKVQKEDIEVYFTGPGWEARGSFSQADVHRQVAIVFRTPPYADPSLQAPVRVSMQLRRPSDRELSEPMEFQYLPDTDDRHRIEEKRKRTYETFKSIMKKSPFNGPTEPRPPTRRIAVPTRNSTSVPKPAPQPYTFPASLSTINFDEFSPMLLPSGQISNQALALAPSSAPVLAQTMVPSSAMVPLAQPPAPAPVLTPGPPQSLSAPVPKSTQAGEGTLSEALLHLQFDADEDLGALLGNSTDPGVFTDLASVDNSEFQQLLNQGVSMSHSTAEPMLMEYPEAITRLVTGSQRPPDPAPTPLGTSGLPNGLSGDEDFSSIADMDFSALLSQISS

B1: HIV LTR tandem kB 33 bp (EMSA) (dsDNA)
DNA 1: AAGGGACTTTCCGCTGGGGACTTTCCAGGGAGG
DNA 2: CCTCCCTGGAAAGTCCCCAGCGGAAAGTCCCTT
Regarding B1, the binding result in [1] and in series [2] was “binds” throughout.

B2: NFKBIA tandem dsDNA (anisotropy), forward label (dsDNA)
DNA 1: CTTGGAAATTCCCCGAGCCTGACCCCGCCCCAGAGAAATCCCCAG
DNA 2: CTGGGGATTTCTCTGGGGCGGGGTCAGGCTCGGGGAATTTCCAAG
modifications: 5' 5AmMC6
Take B2: the Kd in series [3] stood at 1.7 ± 0.5 nM; in series [4] it was 1.5 ± 0.7 nM.

B3: NFKBIA tandem dsDNA (anisotropy), reverse label (dsDNA)
DNA 1: CTTGGAAATTCCCCGAGCCTGACCCCGCCCCAGAGAAATCCCCAG
DNA 2: CTGGGGATTTCTCTGGGGCGGGGTCAGGCTCGGGGAATTTCCAAG
modifications: 5' 5AmMC6
Take B3: the Kd was 10 ± 2 nM in series [5] and 5.1 ± 0.4 nM in series [6].

B4: NFKBIA tandem kB 59 bp (EMSA) (dsDNA)
DNA 1: CTGACTGGCTTGGAAATTCCCCGAGCCTGACCCCGCCCCAGAGAAATCCCCAGCCAGCG
DNA 2: CGCTGGCTGGGGATTTCTCTGGGGCGGGGTCAGGCTCGGGGAATTTCCAAGCCAGTCAG
With B4, the binding result in series [7] and in series [8] was “binds” in each case.

B5: NFKBIA, site 1 scrambled (dsDNA)
DNA 1: CTGACTGGCTTAGTCACGTCACGAGCCTGACCCCGCCCCAGAGAAATCCCCAGCCAGCG
DNA 2: CGCTGGCTGGGGATTTCTCTGGGGCGGGGTCAGGCTCGTGACGTGACTAAGCCAGTCAG
On to B5, for which the binding result in series [9] and in [10] was “binds” throughout.

B6: NFKBIA, site 2 scrambled (dsDNA)
DNA 1: CTGACTGGCTTGGAAATTCCCCGAGCCTGACCCCGCCCCAAGCACTGACACAGCCAGCG
DNA 2: CGCTGGCTGTGTCAGTGCTTGGGGCGGGGTCAGGCTCGGGGAATTTCCAAGCCAGTCAG
As to B6, the binding result in series [9] and in series [10] was “binds” throughout.

B7: HIV LTR, site 1 scrambled (dsDNA)
DNA 1: AAGTCGACTGTCGCTGGGGACTTTCCAGGGAGG
DNA 2: CCTCCCTGGAAAGTCCCCAGCGACAGTCGACTT
On to B7, for which the binding result in [11] and in series [12] was “binds” each time.

B8: HIV LTR, site 2 scrambled (dsDNA)
DNA 1: AAGGGACTTTCCGCTGGTCGACTGTCAGGGAGG
DNA 2: CCTCCCTGACAGTCGACCAGCGGAAAGTCCCTT
In the case of B8, the binding result in series [13] and in series [14] was “binds” throughout.

B9: HIV LTR tandem dsDNA (anisotropy) (dsDNA)
DNA 1: CAAGGGACTTTCCGCTGGGGACTTTCCAGG
DNA 2: CCTGGAAAGTCCCCAGCGGAAAGTCCCTTG
modifications: 5' 5AmMC6
On to B9, for which the dissociation constant Kd in series [15] came out at 1.7 ± 0.4 nM; in series [16] it was 1.3 ± 0.4 nM.
In the case of GTAGACGTGCTCCCCCAGCACGTCTAC (structured_DNA, 5' 5AmMC6) [Random hairpin], the Kd came to 1500 ± 100 nM in series [17] and 130 ± 40 nM in series [18].
